The target of assay [1] is HLA-A*0201 (heavy chain, β2m and peptide …) (human |  | human SARS-CoV). The assay is described as follows: SPR. The note with it: both partners purified.
The target of assay [2] is T1, HLA-G1 (heavy chain, β2m and peptide …) (human | , UniProt P17693-1 25-300; P61769 21-119).
T1 construct: HLA-G1 heavy chain, recombinant; β2-microglobulin (β2m), from inclusion bodies; also called non-classical HLAI; copies: + +
The assay is described as follows: SPR; BIAcore 3000; HLA-A*0201 (700 RU) or HLA-G1 (300 RU) immobilised by amine coupling on CM5 at pH 5.0, BSA as control surface; LILR injected; 25°C; 10 mM HEPES pH 7.4, 150 mM NaCl, 3 mM EDTA, 0.005% Tween-20; Kd by Scatchard analysis or nonlinear fit of a Langmuir isotherm. The note with it: both partners purified.

B1: LILRA3 D1 (domain 1, residues 1-97) (domain or fragment)
chain: GPLPKPTLWAEPGSVITQGSPVTLRCQGSLETQEYHLYREKKTALWITRIPQELVKKGQFPILSITWEHAGRYCCIYGSHTVGLSESSDPLELVVTG
Regarding B1, in assay [1], binding was characterised by a dissociation constant (Kd) of 40.1 µM.

B2: LILRA3 D1D2 (domain 1 and domain 2, residues 1-197) (domain or fragment)
chain: GPLPKPTLWAEPGSVITQGSPVTLRCQGSLETQEYHLYREKKTALWITRIPQELVKKGQFPILSITWEHAGRYCCIYGSHTVGLSESSDPLELVVTGAYSKPTLSALPSPVVTSGGNVTIQCDSQVAFDGFILCKEGEDEHPQCLNSHSHARGSSRAIFSVGPVSPSRRWSYRCYGYDSRAPYVWSLPSDLLGLLVP
Regarding B2, the equilibrium dissociation constant (Kd) (commonly the concentration at which binding is half-saturated) in assay [1] was 28.5 µM.

B3: LILRB2 D1D2 (domain or fragment, human)
chain: GTIPKPTLWAEPDSVITQGSPVTLSCQGSLEAQEYRLYREKKSASWITRIRPELVKNGQFHIPSITWEHTGRYGCQYYSRARWSELSDPLVLVMTGAYPKPTLSAQPSPVVTSGGRVTLQCESQVAFGGFILCKEGEDEHPQCLNSQPHARGSSRAIFSVGPVSPNRRWSHRCYGYDLNSPYVWSSPSDLLELLVPG
notes: LILRB2 (ILT4), domains 1 and 2 (D1D2); also called LILRB2 D1D2 monomer; ILT4 D1D2
On to B3, for which the Kd in assay [1] came to 9.74 µM; in assay [2], 5.62 µM.

Source of the values: PMC3084784 (PLoS ONE, 2011).
